Assay results from the DeepSol protein solubility set.

Test: soluble on expression in E. coli; label from the status in PepcDB or PDB records

Row | Sequence | soluble on expression in E. coli
1 | MATVIHNPLKALGDQFYKEAIEHCRSYNSRLSAERSVRLPFLDSQTGVAQNNCYIWMEKRHRGPGLAPGQLYTYPARCWRKKRRLHPPEDPKLRLLEIKPEVELPLKKDGFTSESTTLEALLRGEGVEKKVDAREEESIQEIQRVLENDENVEEGNEEEDLEEDIPKRKDRTRGRARCPLPSLHCFSSLPSAVIDAKEWGGGGKWEATVAYRKKKIYPVHIFNMLEHHHHHH | not soluble
2 | MGSDKIHHHHHHMQVRTFKGPSAKTVLDMIKAEIGPEAVILSSRDCSGDGVTWCEMTVGVEREAAAAPRMGRDEPAAGDQTPPAGWDEWHREWDEIKGHIMALMKPALRLDELAPRQRVALEYLEREGVEDNVILALYRRLRGAPSLSVLEPLSAVVPVKGWGGADWPQKMQIVCGPSGVGKTSAVVRMALALRRQNAGVRICVLNADSQRGSGRMVLRHYAELCGMGYHEISGPADAAALLGELDGYDKILVDTPVPGRGATLRSLLEETGLDVLEQQVPAAVQLVMSPLYGDAQISFFLRQYECGLPCGLVWTKLDEACNFGALINVPAASGLPVTALSFGSGLKNSLASARGTMIWRLVFKKQLPGDVAAR | not soluble
3 | MRQRFLPLLALLSLLLPLPAPAAPTVSTVADQTGIALTIYNRNLGLVKDRREIRLAPGNGELRFMDVAAQIIPTSVSIASLAGGELQVLEQNYEYDLLSPQKLMDKYVGKEVKLHQKNPYTEREEVVTATLLSNNGGPVYRIGDEITFGHPGRLIFPGVPDDLIARPTLVWLLEGAAVEKRTIEASYLTGGISWRADYVVTLSEKDDQANLAGWVTIDNRSGAAYRNATLKLVAGDVNRVQEQSTRFAKSVRAEAMAPAPQFQEEAFFEYHLYTLQRPSTIKENQTKQINLVTADAVPVKKEFLLKGESFYYQSPAGEVEKQKVGVFVEMENRKEHNLGMPLPKGIVRVYKRDAGGSLQFVGEDTIDHTPEKETVRVKLGDAFDVVGERKQTEWRKVASDTYESAFEIRLRNHKKEDITVKVVEPVPGDWQMLSSSHPHEKGDAFSAVFKVPVPKDGEATLVYRVRMRYLEHHHHHH | soluble
4 | MCLGVPAQIAEIHDSTRATVSMSGVSRMVSTDLLAETIDVGDWVLIHVGFALSKIDEDEAAVTLQQIKQLGGFDEELQSFESSEI | not soluble
5 | MIHSLFLINCSGDIFLEKHWKSVVSQSVCDYFFEAQEKAADVENVPPVISTPHHYLISIYRDKLFFVSVIQTEVPPLFVIEFLHRVADTFQDYFGECSEAAIKDNVVIVYELLEEMLDNGFPLATESNILKELIKPPTILRSVVNSITGSSNVGDTLPTGQLSNIPWRRAGVKYTNNEAYFDVVEEIDAIIDKSGSTVFAEIQGVIDACIKLSGMPDLSLSFMNPRLLDDVSFHPCIRFKRWESERVLSFIPPDGNFRLISYRVSSQNLVAIPVYVKHSISFKENSSCGRFDITIGPKQNMGKTIEGITVTVHMPKVVLNMNLTPTQGSYTFDPVTKVLTWDVGKITPQKLPSLKGLVNLQSGAPKPEENPSLNIQFKIQQLAISGLKVNRLDMYGEKYKPFKGVKYVTKAGKFQVRT | soluble
6 | MNGASPAHSLVSTTAVAGGGGSSGAAAGLDDFHFPPDIPSMQERKDEAMRVLKADLMTELDKEVKSLEEDSWMFEGPRSRIHLISRRGNFLKKGGEVKLW | not soluble
7 | MVEQIKDKLGRPIRDLRLSVTDRCNFRCDYCMPKEVFGDDFVFLPKNELLTFDEMARIAKVYAELGVKKIRITGGEPLMRRDLDVLIAKLNQIDGIEDIGLTTNGLLLKKHGQKLYDAGLRRINVSLDAIDDTLFQSINNRNIKATTILEQIDYATSIGLNVKVNVVIQKGINDDQIIPMLEYFKDKHIEIRFIEFMDVGNDNGWDFSKVVTKDEMLTMIEQHFEIDPVEPKYFGEVAKYYRHKDNGVQFGLITSVSQSFCSTCTRARLSSDGKFYGCLFATVDGFNVKAFIRSGVTDEELKEQFKALWQIRDDRYSDERTAQTVANRQRKKINMNYIGG | soluble
8 | MTARYIAIDWGSTNLRAWLYQGDKCLESRQSEAGVTRLNGKSPDAVLAEVTTHWRDSATPVVMAGMIGSNVGWQNAPYLPVPALFSAIGEQLTAVGDNIWIIPGLCVSREDNHNVMRGEETQLLGACELSPSSVYVMPGTHCKWVQTDTQQIHDFRTVMTGELHHLLLRHSLVGAGLPEQEVSGDAYAAGLERGLNSPAVLPSLFEVRASHVLGHLAREQVSDFLSGLLIGAEVASMSESFAAQQAITLVAGPALISRYQQAFSAIGRDVSTVDGDMAFQAGIRSIAHAVAN | not soluble
9 | MNSRGLILTLGVVIAVAFAQQDSEVEREMMKRKSAYMRFGRSDGGNPMEMEKRKSAYMRFGKRSSGGDEQELVGGDDIDMEKRKSAYMRFGKRSGPQEDDMPMEKRKSAYMRFGKRSSDMEVIGNEGVDGDAHDLFKRKSAYMRFGKRSMGEEEDHDMMKRKSAYMRFGR | not soluble
10 | MGSDKIHHHHHHMAIGIVIASHGEFAAGIHQSGSMIFGDQEKVQVVTFMPSEGPDDLYAKFNDAIAAFDADDEILVLADLWSGSPFNQASRVMEENSDRKFAIITGLNLPMLIQAYTERMMDAAAGVEQVAANIIKEAKDGVKILPEKLQPQEEAPTTSTKKAAPQGAIPEGTVIGDGKLKINLARVDTRLLHGQVATNWTPASKADRIIVASDTVAKDELRKGLIKQAAPGGVKANVVPIKKLIEAAKDPRFGNTHALILFETPQEALEAIEGGVPITELNIGSMAHSTGKTMVNNVISMDKDDVATFEKLRDLGVKFDVRKVPNDSQKDLFELIEKAHVQ | not soluble
11 | MAHHHHHHMQSTGGLPFYGNLYAGRVDSQNYVPPRQGGSGLLEVDKSLWDNPATRQKLQSCPYFALSDQVMFHNMDPVYLDPGLLSPEEHQLLLLFSRAYYEKWSVIHRRPPHALPRLRITYGSSKLLDEILFLLDVHPDVCEVLKKEYAVDDSTLIGMNPNLWSSAYLDPANMDHLSGRVLEFAGVPEPKRTKFFLLLDQMRRIKVHRRDLPNSEERVDVVPFCYGVTLYDFCKFLGITPYSGQLKVYDYVDLQGTARSETLKDEDSYFDYLVALFYRADVRSATLTDLADASDHTCRYTVTVEPFTTADRRVGRWF | soluble
12 | MSFTQLMRVSMKIAFIGEAVSGFGGMETVIRDVITTFRQQHIQSEMFFFCRNDKMDKGWLEGIKYSCSFSNIRLGFLRRAKHIHALSKWLQEYQPDIVICIDVISCLFAAKARKKSGIDMPVFSWPHFSLDHKKHAEYITCADYHLAISSGIKQQMINRGVAESTINVIFNPVETKDSVIPAPEEGETATFIYVGRMKFEGQKRVKDLLDGLSQAKGNWKLHVLGDGSDFEKCQAYGRELNIDDRIVWYGWQQYPWELVQQDIEKVSALLLTSSFEGFPMTLLEALSWGIPCISADCVSGPADIIQPDVNGHLYQPGDIAGFVTLLNKYIAGEIHIEHEKIPASIDEFYQSKYYDRLHKVIISAISRRK | not soluble
13 | MRLTSKGRYAVTAMLDVALNSEAGPVPLADISERQGISLSYLEQLFSRLRKNGLVSSVRGPGGGYLLGKDASSIAVGEVISAVDESVDATRCQGKGGCQGGDKCLTHALWRDLSDRLTGFLNNLEHHHHHH | not soluble
14 | MAWGGLCNPPLCFGFSGCDMNVREYYEHALAERGYQPDEAQLQAVERLQRYYDEWVRFKALRSNALKKLLNRPDVPRGVYLWGGVGRGKSFLMDAFYATVPVVRKTRLHFHEFMRGVHRELEEVKGTQDPLDEVARRLARRYRLICFDEFHVSDVADAMILYRLLLKLFEHGTSFVMTSNYEPSTLYPDGLHRDRILPAIALIQGRMDVLNVDAGIDYRRRSLEQVQCYHTPLDAQARQALEHAFAQLSDTAPQDPVLHIEHREIRAQALAGSVVWFDFATLCGGPRSQNDYLELANRFHAVILSDVPRMGPRQASEARRFTWLIDVFYDHKVKLIMSAEVEPEQLYTEGALANEFHRTVSRILEMQSREYLEAERRLAVTLAAALEHHHHHH | not soluble
15 | MSLKNEKQDITLWIAPNNVQEAFWSEVVGEWNKQPDKKKVVFSTIPAAGSSEEAIMNAIASDRAPDISENIFTGFGSQLADLGQVVDLSTLDGYENLISTRQMTDIMDNWRYNGKNYILPIYMNPVLFWWRGDLLKEQGFSEVPKTYDEVYALSEKYTIPDKRYAIQATSGRNWWDRWFDFIALYYAQSDGKPYIANQQASYDNQAGRDVLDFMHTLFSKKWTLYDFGQDDPLVTGKVLGAVRGPWDISRYQQQYPEILKHIKMGPMLVKEQQDKPHTFADGKGLVLFSHSKVKPEAWEFIQWVFSQPKFDKRWMELTGMPPARADLLTNPFFAEYYQEHPYAAAYAEYVNVAIPPVSSGETVEIQRSMTQMIEKTAFNTSTPDEALQQSIKEVNAILKEGHHHHHH | soluble
16 | MANIEIRQESPSAFYIKVHETDNVAIIVNDHGLKAGTRFPDGLELTEHIPQGHKVALTDIPAHGEIIRYGEVIGYAVRDIPRGSWIDESLVELPKAPPLNTLPLATKVPEPLPPLEGYTFEGYRNADGSVGTKNLLGITTSVHCVAGVVDYVVKVIERDLLPKYPNVDGVVGLNHLYGCGVAINAPAAVVPIRTIHNIALNPNFGGEVMVIGLGCEKLQPERLLEGTEDVPAIAVESASIVRLQDEQHVGFKSMVDDILRVAERHLTKLNQRQRETCPASELVVGMQCGGSDAFSGVTANPAVGYASDLLVRCGATVMFSEVTEVRDAIHLLTPRAINEAVGKRLLDEMAWYDNYLDMGKTDRSANPSPGNKKGGLANVVEKALGSIAKSGKSAIVEVLSPGQRPTKRGLIYAATPASDFVCGTQQVASGITVQVFTTGRGTPYGLMAVPVIKMATRTELANRWYDLMDINAGTIATGEETIEDVGWKLFHFILDVASGRKKTFSDQWGLHNQLAVFNPAPVT | not soluble
17 | MGSDKIHHHHHHMIRIKTPSEIEKMKKAGKAVAVALREVRKVIVPGKTAWDVETLVLEIFKKLRVKPAFKGYGGYKYATCVSVNEEVVHGLPLKEKVFKEGDIVSVDVGAVYQGLYGDAAVTYIVGETDERGKELVRVTREVLEKAIKMIKPGIRLGDVSHCIQETVESVGFNVIRDYVGHGVGRELHEDPQIPNYGTPGTGVVLRKGMTLAIEPMVSEGDWRVVVKEDGWTAVTVDGSRCAHFEHTILITENGAEILTKEG | soluble
18 | MSLYDVTEWKHVFKLDPNKDLPDEQLEILCESGTDAVIIGGSDGVTEDNVLRMMSKVRRFLVPCVLEVSAIEAIVPGFDLYFIPSVLNSKNADWIVGMHQKAMKEYGELMSMEEIVAEGYCIANPDCKAAALTEADADLNMDDIVAYARVSELLQLPIFYLEYSGVLGDIEAVKKTKAVLETSTLFYGGGIKDAETAKQYAEHADVIVVGNAVYEDFDRALKTVAAVKGEEGGSHHHHHH | soluble
19 | MYIMKQSGWLELICGSMFSGKSEELIRRVKRATYAKQEVRVFKPVIDNRYSEAAVVSHNGTSMTSYAISSAADIWDHISESTDVVAVDEVQFFDQEIVEVLSSLADKGYRVIAAGLDMDFRGEPFGVVPNIMAIAESVTKLQAVCSVCGSPASRTQRLIDGKPASYDDPVILVGAAESYEARCRHHHEVPGKSKKLEHHHHHH | soluble
20 | AVVFLWRNEEKWPAEFVSENVVKFGYTVEDFISGNFLYGDIIHPEDRNRVKEELKTRIRRGEVDFNTGYRIFTKAGDVRWVNERAFIQRNREGEITHIQGLVLDIT | not soluble
21 | MASFTSPDIDEKLAILHREMASLRVECDRLLNKHLIVEHTLSQSCSGWPNGAADTSSAYNTGGESCRSVSVTPDGVFIPTTSNSQMIQSQPSPRVLRRTVKMASPAVQRRLVPQNLPTSSSSRPPTVLLPHDSPEQPSRPIHRMHQELPIPEDVVSMVSSNKTQRSIIRAPSAVFGALKGSSLRKLSISRNIQMTTKVNKEESDRKEKEAEEYAKRFRIPSYSVVLKEEKRKSSFRIPVPHYFRSSKAKSKVYQVDAPDEEIEEVIDEEKMAAKTDLGDTTVHYKWKVKRRCDGSRYIVKRPIRSQILKKREAQVYRERAPISTDDDAMSELKLGRYHTKEERKRILERENTKKMLKLQQKMMEKAHPSEQVIYQMSQQKLARQKDAMVMDEFVTTREVLSSRTRPDGIHGVVSVTTV | not soluble
